According to patent US20250268939A1:

Target: BAFF-R Liama IgG2b Fc Tag recombinant protein (Acro, Cat. No.: BAR-H5258) (UniProt Q96RJ3)
Experiment: flow cytometry; control T cells expressing only EGFRt incubated with BAFF-R llama IgG2b Fc protein at 10 ug/mL, detected with FITC-anti llama IgG

UniProt Q96RJ3, sequence (Q96RJ3 7-71): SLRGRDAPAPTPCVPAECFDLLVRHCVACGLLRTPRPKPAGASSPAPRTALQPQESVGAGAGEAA

positive rate: 0.65%
Substance: EGFRt (from UniProt P00533 334-668) (receptor)
